Where no end group is shown, it is not given here.
Target: T1, MBP-PDZ protein (Erbin PDZ) with a single cysteine, conjugated to DNA (UniProt Q96RT1 1321-1410, ATTO 532 (labelled with ATTO 532-NHS); amine-modified DNA oligonucleotide coupled through sulfo-SMCC to the single cysteine between MBP and PDZ)
T1 construct: stretch between MBP and the PDZ domain that holds the single introduced cysteine; Erbin PDZ domain; Held on DNA-coated 40 by 80 nm gold nanorods by DNA hybridisation; About 50% of the protein in the conjugation mixture carried no DNA; also called Erbin PDZ protein; PDZ-DNA; not shown: MBP, N-terminal, kept
Test: single-molecule plasmon-enhanced fluorescence microscopy (TIRF); MBP-PDZ held on gold nanorods (40 by 80 nm) by DNA hybridisation, particles immobilised on glass; ATTO 655-labeled peptide in solution; 637 nm laser; 20 ms exposure; koff from bright times (double exponential fit), kon from event frequency against proteins per particle
Settings: both partners purified

## CGAGRGSIDTWV (also: ATTO 655 label (site not given here)) [ATTO 655-labeled target peptide]
  Kd: 1 to 5.1 µM
  kon: 1.2e+07 M⁻¹ s⁻¹

— article PMC12311895, “Single-Molecule Protein Interactions and Unfolding Revealed by Plasmon-Enhanced Fluorescence” (Analytical Chemistry, 2025)
